Each block holds one binder with its values, some of them ahead of it.
How the values were obtained:
Test in all cases: holdup assay
Parameters in all cases: key: below the threshold = too weak to quantify, mostly under pKd 3.1 to 4
[1] = target: NHERF4_4, Q86UT5
[2] = target: T1, FRMPD1, Q5SYB0
T1 sequence (Q5SYB0 52-145, limits assumed, looked up): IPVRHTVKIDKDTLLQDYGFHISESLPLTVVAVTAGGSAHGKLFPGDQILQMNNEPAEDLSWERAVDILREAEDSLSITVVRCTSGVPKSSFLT

[3] = target: PDLIM1, O00151
[4] = target: T2, CARD11, Q9BXL7
T2 sequence (Q9BXL7 662-765, limits assumed, looked up): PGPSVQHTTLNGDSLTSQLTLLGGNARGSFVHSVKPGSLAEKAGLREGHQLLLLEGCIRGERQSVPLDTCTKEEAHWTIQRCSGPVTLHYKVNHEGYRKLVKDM

[5] = target: T3, MPP2, Q14168
T3 sequence (Q14168 180-250, limits assumed, looked up): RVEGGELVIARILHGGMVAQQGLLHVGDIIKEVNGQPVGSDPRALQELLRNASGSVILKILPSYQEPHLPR

[6] = target: DLG1_3, Q12959
[7] = target: LDB3, O75112
[8] = target: GORASP2, Q9H8Y8
[9] = target: T4, LIN7B, Q9HAP6
T4 sequence (Q9HAP6 88-185, limits assumed, looked up): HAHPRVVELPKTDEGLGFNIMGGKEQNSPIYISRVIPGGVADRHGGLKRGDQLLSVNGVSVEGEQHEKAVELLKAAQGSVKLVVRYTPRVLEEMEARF

[10] = target: T5, PARD3B_1, Q8TEW8
T5 sequence (Q8TEW8 196-299, limits assumed, looked up): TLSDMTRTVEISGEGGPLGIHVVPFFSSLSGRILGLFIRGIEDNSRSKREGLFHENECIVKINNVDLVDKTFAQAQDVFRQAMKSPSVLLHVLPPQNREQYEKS

[11] = target: T6, GRIP1_4, Q9Y3R0
T6 sequence (Q9Y3R0 467-571, limits assumed, looked up): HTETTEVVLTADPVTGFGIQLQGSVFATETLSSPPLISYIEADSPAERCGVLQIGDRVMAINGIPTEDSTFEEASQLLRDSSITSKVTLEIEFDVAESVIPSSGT

[12] = target: GRIP2_4, Q9C0E4
[13] = target: T7, APBA1_2, Q02410
T7 sequence (Q02410 742-832, limits assumed, looked up): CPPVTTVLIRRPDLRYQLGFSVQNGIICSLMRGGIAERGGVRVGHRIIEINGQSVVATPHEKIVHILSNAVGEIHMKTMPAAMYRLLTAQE

[14] = target: T8, NHERF3_3, Q5T2W1
T8 sequence (Q5T2W1 238-333, limits assumed, looked up): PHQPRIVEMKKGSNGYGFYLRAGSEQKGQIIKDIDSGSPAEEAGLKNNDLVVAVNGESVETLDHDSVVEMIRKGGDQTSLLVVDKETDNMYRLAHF

[15] = target: LNX1_2, Q8TBB1
[16] = target: T9, DVL3, Q92997
T9 sequence (Q92997 244-331, limits assumed, looked up): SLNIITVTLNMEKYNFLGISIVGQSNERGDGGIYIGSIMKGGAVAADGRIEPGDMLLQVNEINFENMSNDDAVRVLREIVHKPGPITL

[17] = target: T10, PDZD7_3, Q9H5P4
T10 sequence (Q9H5P4 857-944, limits assumed, looked up): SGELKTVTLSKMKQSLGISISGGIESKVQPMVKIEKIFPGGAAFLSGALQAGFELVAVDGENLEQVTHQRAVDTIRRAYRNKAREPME

[18] = target: T11, HTRA4, P83105
T11 sequence (P83105 378-476, limits assumed, looked up): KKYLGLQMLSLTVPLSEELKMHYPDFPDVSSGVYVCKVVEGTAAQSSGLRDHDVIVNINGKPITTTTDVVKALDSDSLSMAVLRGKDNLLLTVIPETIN

[19] = target: T12, NHERF3_4, Q5T2W1
T12 sequence (Q5T2W1 373-468, limits assumed, looked up): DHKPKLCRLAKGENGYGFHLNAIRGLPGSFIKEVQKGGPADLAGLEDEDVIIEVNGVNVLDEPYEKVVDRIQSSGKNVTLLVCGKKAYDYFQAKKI

[20] = target: T13, SHANK1, Q9Y566
T13 sequence (Q9Y566 658-767, limits assumed, looked up): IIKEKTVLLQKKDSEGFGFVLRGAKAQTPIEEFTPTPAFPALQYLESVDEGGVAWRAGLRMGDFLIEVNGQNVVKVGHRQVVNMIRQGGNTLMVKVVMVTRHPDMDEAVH

[21] = target: TJP2_1, Q9UDY2
[22] = target: SCRIB_3, Q14160
[23] = target: AHNAK1, Q09666
[24] = target: GOPC, Q9HD26
[25] = plain residues with an end cap or a label only (N-terminal biotin on a linker: ttds)
[26] = plain residues with an end cap or a label only (N-terminal biotin on a linker: ahx)
[27] = plain residues with an end cap or a label only (N-terminal biotin on a linker: ado-ado)

Chain of NHERF4_4, Q86UT5 (Q86UT5 464-550): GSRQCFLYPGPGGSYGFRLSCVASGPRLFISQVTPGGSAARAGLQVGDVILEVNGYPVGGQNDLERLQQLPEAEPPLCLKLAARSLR
Chain of LDB3, O75112 (O75112 1-94): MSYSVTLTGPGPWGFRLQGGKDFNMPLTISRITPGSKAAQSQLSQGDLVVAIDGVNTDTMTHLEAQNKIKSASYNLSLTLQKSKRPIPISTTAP
Chain of TJP2_1, Q9UDY2 (Q9UDY2 24-128): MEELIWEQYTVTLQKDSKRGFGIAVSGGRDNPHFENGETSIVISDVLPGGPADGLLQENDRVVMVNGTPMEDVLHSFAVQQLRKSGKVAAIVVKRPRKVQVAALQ
Chain of GRIP2_4, Q9C0E4 (Q9C0E4 446-548): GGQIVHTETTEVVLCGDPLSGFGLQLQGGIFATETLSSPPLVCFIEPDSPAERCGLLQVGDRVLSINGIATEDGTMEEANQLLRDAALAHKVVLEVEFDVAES
Chain of SCRIB_3, Q14160 (Q14160 999-1103): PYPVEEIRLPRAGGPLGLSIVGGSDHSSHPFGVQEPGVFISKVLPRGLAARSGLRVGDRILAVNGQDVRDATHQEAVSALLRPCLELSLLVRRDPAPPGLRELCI
Chain of LNX1_2, Q8TBB1 (Q8TBB1 371-470): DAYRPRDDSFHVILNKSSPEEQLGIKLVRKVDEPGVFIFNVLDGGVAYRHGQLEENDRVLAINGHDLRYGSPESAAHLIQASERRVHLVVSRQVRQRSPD
Chain of PDLIM1, O00151 (O00151 1-87): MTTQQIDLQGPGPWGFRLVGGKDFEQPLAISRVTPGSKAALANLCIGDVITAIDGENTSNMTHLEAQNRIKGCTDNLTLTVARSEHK
Chain of AHNAK1, Q09666 (Q09666 4-100): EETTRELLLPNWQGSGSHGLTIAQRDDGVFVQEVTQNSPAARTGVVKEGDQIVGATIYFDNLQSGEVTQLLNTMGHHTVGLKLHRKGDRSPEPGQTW
Chain of DLG1_3, Q12959 (Q12959 457-571): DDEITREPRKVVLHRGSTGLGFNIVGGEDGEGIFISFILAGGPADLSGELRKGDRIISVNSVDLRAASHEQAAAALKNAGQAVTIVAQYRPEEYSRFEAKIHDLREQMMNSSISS

- pKd [1, 25]: below the threshold
- pKd [2, 25]: below the threshold
- pKd [3, 25]: 3.52
- pKd [4, 25]: below the threshold
- pKd [5, 25]: below the threshold
- pKd [6, 25]: below the threshold
- pKd [7, 25]: 3.49
- pKd [8, 25]: 3.48
- pKd [9, 25]: below the threshold
- pKd [10, 25]: below the threshold
- pKd [11, 25]: below the threshold
- pKd [12, 25]: below the threshold
- pKd [13, 25]: below the threshold
- pKd [14, 25]: below the threshold
- pKd [15, 25]: below the threshold
- pKd [16, 25]: below the threshold
- pKd [17, 25]: 3.59
- pKd [18, 25]: below the threshold
- pKd [19, 25]: below the threshold
- pKd [20, 25]: 4.95
- pKd [21, 25]: below the threshold
- pKd [22, 25]: below the threshold
- pKd [23, 25]: below the threshold
- pKd [24, 25]: below the threshold
Binder: DLDEEEDTHL [PODXL, O00592]

- pKd [1, 26]: 4.1
- pKd [2, 26]: below the threshold
- pKd [3, 26]: below the threshold
- pKd [4, 26]: below the threshold
- pKd [5, 26]: below the threshold
- pKd [6, 26]: below the threshold
- pKd [7, 26]: below the threshold
- pKd [8, 26]: below the threshold
- pKd [9, 26]: below the threshold
- pKd [10, 26]: 4.57
- pKd [11, 26]: below the threshold
- pKd [12, 26]: below the threshold
- pKd [13, 26]: 4.47
- pKd [14, 26]: below the threshold
- pKd [15, 26]: below the threshold
- pKd [16, 26]: 4.9
- pKd [17, 26]: below the threshold
- pKd [18, 26]: below the threshold
- pKd [19, 26]: below the threshold
- pKd [20, 26]: below the threshold
- pKd [21, 26]: below the threshold
- pKd [22, 26]: 3.7
- pKd [23, 26]: below the threshold
- pKd [24, 26]: below the threshold
Binder: VNENQKEYFF [CNTNAP4, Q9C0A0]

- pKd [1, 27]: 3.67
- pKd [2, 27]: below the threshold
- pKd [3, 27]: below the threshold
- pKd [4, 27]: below the threshold
- pKd [5, 27]: below the threshold
- pKd [6, 27]: below the threshold
- pKd [7, 27]: below the threshold
- pKd [8, 27]: below the threshold
- pKd [9, 27]: below the threshold
- pKd [10, 27]: below the threshold
- pKd [11, 27]: below the threshold
- pKd [12, 27]: below the threshold
- pKd [13, 27]: 3.97
- pKd [14, 27]: below the threshold
- pKd [15, 27]: below the threshold
- pKd [16, 27]: below the threshold
- pKd [17, 27]: below the threshold
- pKd [18, 27]: 3.9
- pKd [19, 27]: below the threshold
- pKd [20, 27]: below the threshold
- pKd [21, 27]: below the threshold
- pKd [22, 27]: below the threshold
- pKd [23, 27]: below the threshold
- pKd [24, 27]: 3.75
Binder: SQDPKKPSRV [CBY2, Q8NA61]
